Assay results reported in patent US20250154277A1 (CONCEPT TO MEDICINE BIOTECH, published 2025).
Substitutions are numbered along the chain they refer to. Values belong to the binder of their own block, whether it stands above or below them.

Tests used:
[1] = molecular target: T1, human 5T4-His protein (human, UniProt Q13641 32-355); assay: SPR Biacore, Protein A capture
T1 construct: also called recombinant 5T4 protein (human 5T4-his tag); human 5T4 protein; not shown: His tag
T1 sequence (looked up): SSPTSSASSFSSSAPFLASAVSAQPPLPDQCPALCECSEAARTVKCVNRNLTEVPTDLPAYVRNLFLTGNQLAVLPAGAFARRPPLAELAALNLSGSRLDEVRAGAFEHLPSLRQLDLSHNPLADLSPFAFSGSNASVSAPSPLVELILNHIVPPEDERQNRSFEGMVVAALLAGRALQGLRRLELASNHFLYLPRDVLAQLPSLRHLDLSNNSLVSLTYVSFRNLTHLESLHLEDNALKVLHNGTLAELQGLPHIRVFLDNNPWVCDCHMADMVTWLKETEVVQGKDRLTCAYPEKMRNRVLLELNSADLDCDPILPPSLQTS
Protocol: The binding of the 14G12 humanized antibodies to recombinant 5T4 protein (human 5T4-his tag) was tested with Biacore using a capture method. The mAbs were captured using Protein A chip. Serial dilution of human 5T4-his tag protein was injected over captured antibody for 120 s-180 s at a flow rate of 30 μl/min. The antigen was allowed to dissociate for 360 s-1000 s. All the experiments were carried out on a Biacore T200. Data analysis was carried out using the Biacore T200 evaluation software.

[2] = molecular target: T1, human 5T4-His protein; assay: ELISA, coated 5T4-His
Protocol: To evaluate the binding activity of 14G12 humanized antibodies to human 5T4, the 14G12 chimeric antibody along with 14G12 humanized mAbs were subjected to ELISA test.
Briefly, microtiter plates were coated with human 5T4-His protein at 1 μg/ml in PBS, 100 μl/well at 4° C. overnight, then blocked with […]. Serial dilutions of antibodies were added to each well and incubated for 1 hour at 37° C. The plates were washed with PBS/Tween and then incubated with Goat Anti-Human IgG-HRP for 30 mins at 37° C. After washing, the plates were developed with TMB substrate and analyzed by spectrophotometer at OD 450 nm. As shown in FIG. 10 and Table 6, most of the humanized antibodies bound to human 5T4 at high activity.

B1: Hu14G12-2 (antibody, V domains shown)
VH: EVQLVQSGAEVKKPGATVKISCKVSGYAFSSSWMNWVQQAPGKGLEWMGRIYREDGHTNYNGKFKGRVTITADTSTDTAYMELSSLRSEDTAVYYCATGGAMDYWGQGTLVTVSS
VL: DIQMTQSPSSLSASVGDRVTITCRASQDISNYLNWYQQKPGKAPKLLIYYTSRLHSGVPSRFSGSGSGTDYTFTISSLQPEDIATYFCQQDNTLPWTFGGGTKLEIK
notes: humanized
- Kd [1]: 21.5 nM
- koff [1]: 0.00436 s⁻¹
- kon [1]: 203000 M⁻¹ s⁻¹
- EC50 [2]: 0.021 µg/mL

B2: Hu14G12-22 (antibody, V domains shown)
VH: QVQLVQSGAEVKKPGSSVKVSCKASGGTFSSSWMNWVKQAPGQGLEWIGRIYREDGHTNYNGKFKGRATITADKSTSTAYMELSSLRSEDTAVYFCANGGAMDYWGQGTTVTVSS
VL: B1 VL with A43V, F73L, I83V
notes: humanized
- EC50 [2]: 0.45 µg/mL

B3: Hu14G12-36 (antibody, V domains shown)
VH: B1 VH with E1Q, T17S, I20V, V24A, Q38R, K43Q, I70M, T74K, D77T, T98N
VL: DIVMTQSPDSLAVSLGERATINCRASQDISNYLNWYQQKPGQPPKLLIYYTSRLHSGVPDRFSGSGSGTDYTLTISSLQAEDIAVYFCQQDNTLPWTFGGGTKVEIK
notes: humanized
- EC50 [2]: 0.0068 µg/mL

B4: Hu14G12-5 (antibody, V domains shown)
VH: B1 VH with M48I, Y95F, T98N
VL: B1 VL with Y71F, F87Y
notes: humanized
- Kd [1]: 5.88 nM
- koff [1]: 0.00146 s⁻¹
- kon [1]: 248000 M⁻¹ s⁻¹
- EC50 [2]: 0.014 µg/mL

B5: Hu14G12-9 (antibody, V domains shown)
VH: B1 VH with Q38K, M48I, V68A, D77T, Y95F, T98N
VL: B1 VL with Y71F, F87Y
notes: humanized
- Kd [1]: 5.31 nM
- koff [1]: 0.00107 s⁻¹
- kon [1]: 202000 M⁻¹ s⁻¹
- EC50 [2]: 0.012 µg/mL

B6: Hu14G12-1 (antibody, V domains shown)
VH: B1 VH
VL: B1 VL with Y71F, F87Y
notes: humanized
- Kd [1]: 42.7 nM
- koff [1]: 0.0121 s⁻¹
- kon [1]: 283000 M⁻¹ s⁻¹
- EC50 [2]: 0.021 µg/mL

B7: Hu14G12-8 (antibody, V domains shown)
VH: B1 VH with M48I, Y95F, T98N
VL: B1 VL with T22S, A43T, P44V
notes: humanized
- Kd [1]: 1.36 nM
- koff [1]: 0.000464 s⁻¹
- kon [1]: 340000 M⁻¹ s⁻¹
- EC50 [2]: 0.015 µg/mL

B8: Hu14G12-35 (antibody, V domains shown)
VH: B1 VH with E1Q, T17S, I20V, V24A, Q38R, K43Q, I70M, T74K, D77T, T98N
VL: EIVMTQSPATLSLSPGERATLSCRASQDISNYLNWYQQKPGQAPRLLIYYTSRLHSGIPARFSGSGSGTDYTLTISSLEPEDIAVYFCQQDNTLPWTFGGGTKVEIK
notes: humanized
- EC50 [2]: 0.013 µg/mL

B9: Hu14G12-20 (antibody, V domains shown)
VH: B2 VH with I70L
VL: B1 VL with A43V, F73L, I83V
notes: humanized
- EC50 [2]: 0.32 µg/mL

B10: Hu14G12-7 (antibody, V domains shown)
VH: B1 VH with M48I, Y95F, T98N
VL: B1 VL with T22S, P44V, Y71F
notes: humanized
- Kd [1]: 2.52 nM
- koff [1]: 0.000846 s⁻¹
- kon [1]: 336000 M⁻¹ s⁻¹
- EC50 [2]: 0.015 µg/mL

B11: Hu14G12-4 (antibody, V domains shown)
VH: B1 VH
VL: B1 VL with T22S, A43T, P44V
notes: humanized
- Kd [1]: 12.5 nM
- koff [1]: 0.00267 s⁻¹
- kon [1]: 214000 M⁻¹ s⁻¹
- EC50 [2]: 0.019 µg/mL

B12: Hu14G12-21 (antibody, V domains shown)
VH: B2 VH
VL: B1 VL with A43V, Y71F, F73L, I83V, F87Y
notes: humanized
- EC50 [2]: 0.4 µg/mL

B13: Hu14G12-3 (antibody, V domains shown)
VH: B1 VH
VL: B1 VL with T22S, P44V, Y71F
notes: humanized
- Kd [1]: 27.5 nM
- koff [1]: 0.0055 s⁻¹
- kon [1]: 200000 M⁻¹ s⁻¹
- EC50 [2]: 0.026 µg/mL

B17: Hu14G12-10 (antibody, V domains shown)
VH: B1 VH with Q38K, M48I, V68A, D77T, Y95F, T98N
VL: B1 VL
notes: humanized
- Kd [1]: 2.42 nM
- koff [1]: 0.000512 s⁻¹
- kon [1]: 212000 M⁻¹ s⁻¹
- EC50 [2]: 0.015 µg/mL

B23: Hu14G12-23 (antibody, V domains shown)
VH: B2 VH with G27Y, T28A, K38R, I48M, A68V, S77T, F95Y, T110L
VL: B1 VL with L104V
notes: humanized
- Kd [1]: 2.58 nM
- koff [1]: 0.000908 s⁻¹
- kon [1]: 352000 M⁻¹ s⁻¹
- EC50 [2]: 0.0071 µg/mL

B26: Hu14G12-6 (antibody, V domains shown)
VH: B1 VH with M48I, Y95F, T98N
VL: B1 VL
notes: humanized
- Kd [1]: 2.68 nM
- koff [1]: 0.00077 s⁻¹
- kon [1]: 288000 M⁻¹ s⁻¹
- EC50 [2]: 0.01 µg/mL

B30: Hu14G12-14 (antibody, V domains shown)
VH: B1 VH with V24A, Q38K, M48I, V68A, D77T, T91S, Y95F, T98N
VL: B1 VL
notes: humanized
- Kd [1]: 3.39 nM
- koff [1]: 0.000701 s⁻¹
- kon [1]: 207000 M⁻¹ s⁻¹
- EC50 [2]: 0.014 µg/mL

The remaining lines, values ahead:

- Kd [1]: 2.14 nM
- koff [1]: 0.0011 s⁻¹
- kon [1]: 514000 M⁻¹ s⁻¹
- EC50 [2]: 0.0067 µg/mL
B14: Hu14G12-29 (antibody, V domains shown)
VH: QVQLVQSGAEVKKPGASVKVSCKASGYAFSSSWMNWVRQAPGQGLEWMGRIYREDGHTNYNGKFKGRVTMTADKSITTAYMELSRLRSDDTAVYYCANGGAMDYWGQGTLVTVSS
VL: B1 VL with F73L, L104V
notes: humanized

- Kd [1]: 2.1 nM
- koff [1]: 0.000921 s⁻¹
- kon [1]: 438000 M⁻¹ s⁻¹
- EC50 [2]: 0.014 µg/mL
B15: Hu14G12-47 (antibody, V domains shown)
VH: B14 VH with I76T, S84R, R85S
VL: B1 VL with S10T, D70E, F73L, E81D, L104V
notes: humanized

- EC50 [2]: 0.023 µg/mL
B16: Hu14G12-46 (antibody, V domains shown)
VH: B14 VH with I76T, S84R, R85S
VL: B3 VL
notes: humanized

- EC50 [2]: 0.028 µg/mL
B18: Hu14G12-40 (antibody, V domains shown)
VH: B14 VH with G44R, M70I, I76A, R85S, D89E
VL: B8 VL
notes: humanized

- Kd [1]: 0.844 nM
- koff [1]: 0.0016 s⁻¹
- kon [1]: 1.89e+06 M⁻¹ s⁻¹
- EC50 [2]: 0.0064 µg/mL
B19: Hu14G12-43 (antibody, V domains shown)
VH: B14 VH with I76T, S84R, R85S
VL: B1 VL with L104V
notes: humanized

- Kd [1]: 1.41 nM
- koff [1]: 0.00197 s⁻¹
- kon [1]: 1.4e+06 M⁻¹ s⁻¹
- EC50 [2]: 0.0075 µg/mL
B20: Hu14G12-44 (antibody, V domains shown)
VH: B14 VH with I76T, S84R, R85S
VL: B1 VL with F73L, L104V
notes: humanized

- Kd [1]: 1.05 nM
- koff [1]: 0.00142 s⁻¹
- kon [1]: 1.34e+06 M⁻¹ s⁻¹
- EC50 [2]: 0.011 µg/mL
B21: Hu14G12-37 (antibody, V domains shown)
VH: B14 VH with I76T, R85S, D89E
VL: B1 VL with S10T, D70E, F73L, E81D, L104V
notes: humanized

- EC50 [2]: 0.0069 µg/mL
B22: Hu14G12-26 (antibody, V domains shown)
VH: B14 VH with A16S, M70I, I76T, R85S, D89E
VL: B3 VL
notes: humanized

- EC50 [2]: 0.01 µg/mL
B24: Hu14G12-30 (antibody, V domains shown)
VH: B14 VH
VL: B8 VL
notes: humanized

- EC50 [2]: 0.0084 µg/mL
B25: Hu14G12-31 (antibody, V domains shown)
VH: B14 VH
VL: B3 VL
notes: humanized

- EC50 [2]: 0.0047 µg/mL
B27: Hu14G12-41 (antibody, V domains shown)
VH: B14 VH with G44R, M70I, I76A, R85S, D89E
VL: B3 VL
notes: humanized

- EC50 [2]: 0.0082 µg/mL
B28: Hu14G12-45 (antibody, V domains shown)
VH: B14 VH with I76T, S84R, R85S
VL: B8 VL
notes: humanized

- EC50 [2]: 0.006 µg/mL
B29: Hu14G12-25 (antibody, V domains shown)
VH: B14 VH with A16S, M70I, I76T, R85S, D89E
VL: B8 VL
notes: humanized

- Kd [1]: 2.76 nM
- koff [1]: 0.000979 s⁻¹
- kon [1]: 355000 M⁻¹ s⁻¹
- EC50 [2]: 0.0093 µg/mL
B31: Hu14G12-32 (antibody, V domains shown)
VH: B14 VH
VL: B1 VL with S10T, D70E, F73L, E81D, L104V
notes: humanized
